Biological target: T1, M1-linked di-Ub (UniProt P0CG48 1-76; P0CG48 1-76)
T1 construct: ubiquitin, distal protomer (its C-terminus joined to M1 of the next); ubiquitin, proximal protomer (free C-terminus); also called M1 di-Ub; linear di-Ub; source: E. coli, purified (acid precipitation, cation exchange, SEC)
Assay: ITC; M1-linked di-Ub and HOIL-1 (WT or I358R), direct binding; who was titrated and the concentrations are not told; 25 °C, 10 mM HEPES pH 7.9, 100 mM NaCl
Settings: both partners purified

- Kd: ~50 µM
B1: HOIL-1 helix-RBR (WT) (domain or fragment, human, UniProt Q9BYM8 233-510, looked up)
chain: DEEERARLAGEEEALRQYQQRKQQQQEGNYLQHVQLDQRSLVLNTEPAECPVCYSVLAPGEAVVLRECLHTFCRECLQGTIRNSQEAEVSCPFIDNTYSCSGKLLEREIKALLTPEDYQRFLDLGISIAENRSAFSYHCKTPDCKGWCFFEDDVNEFTCPVCFHVNCLLCKAIHEQMNCKEYQEDLALRAQNDVAARQTTEMLKVMLQQGEAMRCPQCQIVVQKKDGCDWIRCTVCHTEICWVTKGPRWGPGGPGDTSGGCRCRVNGIPCHPSCQNCH
notes: HOIL-1, human, residues 233-510 (N-terminal helix and RBR module); also called WT HOIL-1; HOIL-1 233-510 (helix-RBR); source: E. coli BL21(DE3), purified (Ni-NTA, SEC)

Source: article PMC9834252 (Nature Communications, 2023)
